# Data published in patent US20260092103A1 (ALBERT EINSTEIN COLLEGE OF MEDICINE, published 2026).
# B1: anti-GroEL2 antibody 103.11 (antibody, V domains shown)
# VH: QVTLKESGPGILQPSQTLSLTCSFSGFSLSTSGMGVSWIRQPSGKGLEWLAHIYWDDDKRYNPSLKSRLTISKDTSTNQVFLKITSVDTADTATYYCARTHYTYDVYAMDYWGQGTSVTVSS
# VL: QIVLTQSPAIMSASLGERVTMTCTASSSVSSSYLHWYRQKPGSSPKLWIYSASNLASGVPPRFSGSGSGTSYSLTISNMEAEDAATYYCHQYHRSPWTFGGGTKLEIKR
# Biological target: Recombinant Mtb protein GroEL2 (Mycobacterium tuberculosis, UniProt P9WPE7 1-540)
# Sequence (P9WPE7 whole entry): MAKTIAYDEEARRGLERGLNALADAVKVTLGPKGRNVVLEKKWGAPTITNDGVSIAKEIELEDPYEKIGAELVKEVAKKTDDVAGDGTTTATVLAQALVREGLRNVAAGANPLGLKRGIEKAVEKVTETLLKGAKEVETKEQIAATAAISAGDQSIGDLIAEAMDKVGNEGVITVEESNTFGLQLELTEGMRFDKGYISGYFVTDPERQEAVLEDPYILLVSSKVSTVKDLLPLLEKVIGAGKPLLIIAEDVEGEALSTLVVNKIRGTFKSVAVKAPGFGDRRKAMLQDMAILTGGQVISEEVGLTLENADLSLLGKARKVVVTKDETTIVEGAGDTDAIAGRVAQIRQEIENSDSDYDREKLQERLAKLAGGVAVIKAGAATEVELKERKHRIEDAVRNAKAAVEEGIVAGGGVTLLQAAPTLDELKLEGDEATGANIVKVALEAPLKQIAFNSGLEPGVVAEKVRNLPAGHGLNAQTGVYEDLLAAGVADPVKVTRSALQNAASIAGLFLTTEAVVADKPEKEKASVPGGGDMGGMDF
binder,measurement,value
B1,EC50 (read off the curve),~0.02 µg/mL
